The series deals with T1, DoeX (AsnC/Lrp family) (Halomonas elongata DSM 2581T, UniProt E1V7V9 1-158).
T1 sequence: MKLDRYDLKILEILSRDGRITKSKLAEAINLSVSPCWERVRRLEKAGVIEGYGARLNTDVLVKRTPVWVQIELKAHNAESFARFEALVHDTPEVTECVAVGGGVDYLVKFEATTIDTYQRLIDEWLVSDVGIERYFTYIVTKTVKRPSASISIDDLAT
Briefly: EMSA. For orientation: A gel shift assay detects complexes by their altered migration in electrophoresis.

B1: F3 (dsDNA)
DNA 1: AGAGGCAGCCGGATATCGGTGACATGATCGTTTGGCGAGCGATTTC
DNA 2: GAAATCGCTCGCCAAACGATCATGTCACCGATATCCGGCTGCCTCT
In the case of B1, the binding result is on record as “binds”.

These data come from PMC3187862.
